Measured values published in patent US7972772B2, “KIF11 and method for diagnosing non-small cell lung cancer” (Oncotherapy Science, Inc., priority 2004, dated 2011).

Tests used:
LC319 cells = experiment: Triplicate MTT assay of cell viability, LC319; type: cell-based, human; conditions: LC319, plasmid 2.5-10 μg vs mock, 7 days with G418; P<0.001 KOC1DEL3 vs mock
Protocol: Using 30 μl of Lipofectamine 2000 (Invitrogen), 10 μg of siRNA-expression vector were transfected into NSCLC cell lines, A549 and LC319, both endogenously over-expressing KOC1, KIF11, NMU, GHSR1b, NTSR1, RAB35, and FOXM1. […] The transfected cells were cultured for five days in the presence of appropriate concentrations of geneticin (G418), and then, cell numbers and viability were measured by Giemsa staining and triplicate MTT assays. The target sequences of the synthetic oligonucleotides for RNAi were as follows: control 1 (EGFP: enhanced green fluorescent protein (EGFP) gene, a mutant of Aequorea victoria EGFP), 5′-[…]-3′ (SEQ.ID.NO.29); control 2 (Luciferase: Photinus pyralis luciferase gene), 5′-[…]-3′ (SEQ.ID.NO.30); control 3 (Scramble: chloroplast Euglena gracilis gene coding for 5S and 16S rRNAs), 5′-[…]-3′ (SEQ. ID. NO.31);
We performed dominant-negative assays using the KOC1 deletion mutants to investigate the functional role of the KOC1-KIF11 complex in growth or survival of lung-cancer cells. […] The transfected cells were cultured for 7 days in the presence of G418 and their viability was measured by triplicate MTT assays.

endogenous KIF11 = target: T1, endogenous KIF11 (Homo sapiens, UniProt P52732); experiment: Immunoprecipitation of KOC1 deletion mutants with endogenous KIF11; type: binding
T1 construct: endogenous in cells
T1 sequence (P52732 1-1056): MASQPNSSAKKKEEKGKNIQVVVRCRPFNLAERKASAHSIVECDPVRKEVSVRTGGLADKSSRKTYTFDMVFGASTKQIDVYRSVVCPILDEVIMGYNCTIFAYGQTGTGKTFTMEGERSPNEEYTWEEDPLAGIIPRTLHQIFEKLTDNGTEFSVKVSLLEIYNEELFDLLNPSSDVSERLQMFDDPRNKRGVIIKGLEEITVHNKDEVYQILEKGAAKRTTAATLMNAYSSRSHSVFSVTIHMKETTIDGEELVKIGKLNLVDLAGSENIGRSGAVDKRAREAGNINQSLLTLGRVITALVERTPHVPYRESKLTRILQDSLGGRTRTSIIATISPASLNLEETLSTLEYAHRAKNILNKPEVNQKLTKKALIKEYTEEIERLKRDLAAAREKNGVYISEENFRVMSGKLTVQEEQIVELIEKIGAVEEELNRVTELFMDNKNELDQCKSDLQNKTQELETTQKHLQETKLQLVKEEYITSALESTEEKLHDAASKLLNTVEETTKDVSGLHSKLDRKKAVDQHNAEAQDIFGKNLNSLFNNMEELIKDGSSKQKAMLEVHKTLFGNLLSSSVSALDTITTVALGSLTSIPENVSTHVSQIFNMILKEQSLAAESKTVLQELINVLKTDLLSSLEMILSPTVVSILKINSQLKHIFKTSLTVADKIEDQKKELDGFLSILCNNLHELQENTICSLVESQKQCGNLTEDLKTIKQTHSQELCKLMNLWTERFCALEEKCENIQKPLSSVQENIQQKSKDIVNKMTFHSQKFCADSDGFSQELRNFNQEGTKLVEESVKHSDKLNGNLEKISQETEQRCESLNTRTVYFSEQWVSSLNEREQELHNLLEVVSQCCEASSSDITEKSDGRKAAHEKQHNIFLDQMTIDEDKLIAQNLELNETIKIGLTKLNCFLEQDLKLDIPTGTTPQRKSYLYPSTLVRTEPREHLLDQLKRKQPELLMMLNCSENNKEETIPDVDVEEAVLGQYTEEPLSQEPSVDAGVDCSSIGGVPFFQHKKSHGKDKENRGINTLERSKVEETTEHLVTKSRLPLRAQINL

RAB35 mRNA = experiment: Northwestern blot analysis with DIG-labeled RAB35 mRNA; type: binding; conditions: deletion mutants expressed in A549 cells, compared to full-length KOC1
Protocol: Immunoprecipitated extracts from cells transfected with the KOC1 deletion mutants (μM) were boiled in 2×SDS-sample buffer, electrophoresed through 10-20% gradient polyacrylamide gels (BIO-RAD) and transferred to a polyvinylidene difluoride membrane (Hybond-P). The membrane was then blocked for 1 hour at room temperature in blocking buffer (10 mM Tris-HCl (pH 7.8), 150 mM NaCl, 1 mg/ml yeast tRNA), and washed twice with 50 ml of 10 mM Tris-HCl (pH 7.8) for 5 min and incubated with DIG-labeled RNA probe in 5 ml of NWB buffer (10 mM Tris-HCl (pH 7.8), 1 mM EDTA, 50 mM NaCl, 0.02% Ficoll, 0.02% polyvinyl pyrrolidone, 0.02% BSA) for 2 hours at room temperature. The membrane was washed four times with NWB buffer and the RNA probe bound to the proteins was then detected using DIG nucleic acid detection kit (Roche) according to the supplier's protocol.
To determine the region of KOC1 that is required for binding to KOC1-associated mRNAs, we performed northwestern blot analysis using immunoprecipitated recombinant proteins of KOC1 deletion-mutants expressed in A549 cells (FIG. 4a) and DIG-labeled RAB35 mRNA, which is one of the KOC1 associated mRNAs.

KOC1-KIF11 complex = target: T2, KOC1-KIF11 complex (Homo sapiens, UniProt P52732); experiment: Immunoprecipitation of endogenous KOC1-KIF11 complex after dominant-negative transfection; type: cell-based
T2 construct: endogenous in cells; host or cells: LC319 (KOC1DEL3) and A549 (KOC1DEL2)
T2 sequence (P52732 1-1056): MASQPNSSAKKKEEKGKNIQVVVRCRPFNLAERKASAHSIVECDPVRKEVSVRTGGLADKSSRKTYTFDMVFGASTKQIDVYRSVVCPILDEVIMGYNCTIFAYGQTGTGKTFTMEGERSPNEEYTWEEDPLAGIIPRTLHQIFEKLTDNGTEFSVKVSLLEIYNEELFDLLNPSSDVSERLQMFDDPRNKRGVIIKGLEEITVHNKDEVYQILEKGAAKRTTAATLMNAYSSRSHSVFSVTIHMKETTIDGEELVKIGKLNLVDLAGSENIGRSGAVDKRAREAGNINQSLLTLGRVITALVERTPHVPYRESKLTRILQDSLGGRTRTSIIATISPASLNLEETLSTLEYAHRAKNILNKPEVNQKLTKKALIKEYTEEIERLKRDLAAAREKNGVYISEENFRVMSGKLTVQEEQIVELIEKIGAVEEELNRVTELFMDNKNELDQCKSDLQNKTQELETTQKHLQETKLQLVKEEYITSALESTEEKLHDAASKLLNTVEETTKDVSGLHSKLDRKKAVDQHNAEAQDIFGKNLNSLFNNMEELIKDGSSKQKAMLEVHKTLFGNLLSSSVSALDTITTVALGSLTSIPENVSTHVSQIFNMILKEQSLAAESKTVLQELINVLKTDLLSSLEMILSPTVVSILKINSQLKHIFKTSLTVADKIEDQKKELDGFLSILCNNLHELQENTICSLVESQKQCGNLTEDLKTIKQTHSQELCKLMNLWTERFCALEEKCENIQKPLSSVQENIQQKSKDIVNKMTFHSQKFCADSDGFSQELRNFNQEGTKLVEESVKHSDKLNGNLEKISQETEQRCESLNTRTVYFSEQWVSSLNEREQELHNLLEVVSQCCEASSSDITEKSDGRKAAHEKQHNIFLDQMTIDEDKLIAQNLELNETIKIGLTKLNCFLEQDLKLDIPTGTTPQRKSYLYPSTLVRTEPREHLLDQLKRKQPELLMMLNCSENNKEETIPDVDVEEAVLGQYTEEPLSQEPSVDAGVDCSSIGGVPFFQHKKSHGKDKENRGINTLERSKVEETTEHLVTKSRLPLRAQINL
Protocol: We performed dominant-negative assays using the KOC1 deletion mutants to investigate the functional role of the KOC1-KIF11 complex in growth or survival of lung-cancer cells. The KOC1DEL3 and KOC1DEL2 construct (FIG. 3a; 10 μg), mock plasmid (10 μg), or plasmid mixtures of both constructs in the final dose of 10-μg DNA (KOC1DEL3 or KOC1DEL2 vs mock (μg), 7.5:2.5; 5:5; or 2.5:7.5, individually) were transfected into LC319 cells. The transfected cells were cultured for 7 days in the presence of G418 and their viability was measured by triplicate MTT assays.
To investigate the functional significance of KOC1-KIF11 interaction for growth or survival of lung-cancer cells, a deletion fragment of KOC1 containing the two RRMs, which was able to interact with KIF11 (KOC1DEL3; FIG. 3a, b) was examined for a dominant-negative function of suppressing direct interaction between endogenous KOC1 and KIF11. […] We also confirmed that transfection of construct containing only KH-domains control have no effect on proliferation. […]

A549 cells = experiment: Triplicate MTT assay of cell viability, A549; type: cell-based, human; conditions: A549, plasmid dose-dependent vs mock; P=0.0006 KOC1DEL2 vs mock

B1: KOC1DEL3: KOC1 deletion mutant 2×RRM without KH, positions 1-197 of SEQ ID NO:105 (protein, listed as Homo sapiens)
chain: MNKLYIGNLSENAAPSDLESIFKDAKIPVSGPFLVKTGYAFVDCPDESWALKAIEALSGKIELHGKPIEVEHSVPKRQRIRKLQIRNIPPHLQWEVLDSLLVQYGVVESCEQVNTDSETAVVNVTYSSKDQARQALDKLNGFQLENFTLKVAYIPDEMAAQQNPLQQPRGRRGLGQRGSSRQGSPGSVSKQKPCDLP
**Q.** Which “cell viability (MTT), dominant-negative assay” value (LC319 cells) does the source give for B1 here?
**A.** Its value is “significant dose-dependent decreases”.

**Q.** And the “interaction with endogenous KIF11 (immunoprecipitation)” value (endogenous KIF11; LC319 cells)?
**A.** Its value is “detected interaction”.

**Q.** And the “binding to RAB35 mRNA (northwestern blot)” value (RAB35 mRNA)?
**A.** Its value is “did not bind”.

**Q.** And the “complex formation between endogenous KOC1 and KIF11” value (KOC1-KIF11 complex; LC319 cells over-expressing the RRM domains)?
**A.** The value was “reduce complex formation”.

B2: KOC1DEL2: KOC1 deletion mutant 2×RRM+2×KH, positions 1 to 406 of SEQ ID NO:105 (protein, listed as Homo sapiens)
chain: MNKLYIGNLSENAAPSDLESIFKDAKIPVSGPFLVKTGYAFVDCPDESWALKAIEALSGKIELHGKPIEVEHSVPKRQRIRKLQIRNIPPHLQWEVLDSLLVQYGVVESCEQVNTDSETAVVNVTYSSKDQARQALDKLNGFQLENFTLKVAYIPDEMAAQQNPLQQPRGRRGLGQRGSSRQGSPGSVSKQKPCDLPLRLLVPTQFVGAIIGKEGATIRNITKQTQSKIDVHRKENAGAAEKSITILSTPEGTSAACKSILEIMHKEAQDIKFTEEIPLKILAHNNFVGRLIGKEGRNLKKIEQDTDTKITISPLQELTLYNPERTITVKGNVETCAKAEEEIMKKIRESYENDIASMNLQAHLIPGLNLNALGLFPPTSGMPPPTSGPPSAMTPPYPQFEQSETE
**Q.** Which “cell viability (MTT), dominant-negative assay” value (A549 cells) does the source give for B2 here?
**A.** Its value is “significant dose-dependent decreases”.

**Q.** What about the “interaction with endogenous KIF11 (immunoprecipitation)” value (endogenous KIF11; A549 cells) of the same molecule?
**A.** The value was “detected interaction”.

**Q.** What about the “binding to RAB35 mRNA (northwestern blot)” value (RAB35 mRNA) of the same molecule?
**A.** The value was “very weak binding affinities”.

**Q.** What about the “complex formation between endogenous KOC1 and KIF11” value (KOC1-KIF11 complex; A549 cells over-expressing KOC1DEL2) of the same molecule?
**A.** Its value is “reduced complex formation”.
